Measurements taken from a protein production outcome set (Wang et al. 2014).

Test: label from the status in PepcDB records
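Note: failed if final PepcDB status was selected cloned or expressed and not failed if soluble or beyond.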

Sequence	protein production
MTSRSATATARTSSEARAVARTQTLIKGEHGIGTVRRTTLPGGLRIVTETLPSVRSATFGIWAHVGSRDETPALNGATHYLEHLLFKGTRKRSALDISSAIDAVGGEMNAFTAKEYTCYYARVLDTDLPLAIDVVCDMLTGSLIQEEDVDVERGAILEEIAMTEDDPGDCVHDLFAHTMFGDNALGRPVLGTVDTVNALTADRIRRFYRKHYDPTHLVVAAAGNVDHNKVVRQVRAAFEKSGALKDPAAQPLAPRAGRRTVRAAGRVELIGRKTEQAHVILGMPGLARTDERRWAMGVLNTALGGGMSSRLFQEVREKRGLAYSVYSYTSGFADCGLFGVYAGCRPSQVHDVLKICRDELDHVAEHGLTDDEIGRAVGQLQGSTVLGLEDTGALMNRIGKSELCWGEQMSVDDMLARIASVTPDDVRAVARDVLGRRPSLSVIGPLKDKQASRLHDAVA	failed
MTQTVDIENTDNVLSRRDSNAETQQMLRQRFETQPDLMPAQLASELGIAELEVVTALPQAQRVFLPLAHMDELLQSLPEWGSLTTIVMLSGSVFEFKGDFPQGKFAHGYYNLYSKGDGLHGHLKLDGMRAIALISRPFRGSESHSINFFGPQGEVVFKVYLGRDKQRVLFPDQVRRFKALAATFAD	failed
MNGSADAGPRPRKYVFITGGVVSSLGKGILTSSLGALLRARGYRVTAIKIDPYVNVDAGTMRPYEHGEVFVTADGAETDLDIGHYERFLDMDLSRGNNLTTGQVYLSVIQKERRGEYLSQTVQVIPHITDEIKERIRKVAEEQKAEIVVVEVGGTVGDIESLPFLEAIRQFRFDEGEGNTLYLHLTLVPYLETSEEFKTKPTQHSVATLRGVGIQPDILVLRSARPVPEEVRRKVALFTNVRPGHVFSSPTVEHLYEVPLLLEEQGLGRAVERALGLEAVIPNLSFWQEAVRVLKHPERTVKIAIAGKYVKMPDAYLSLLEALRHAGIKNRARVEVKWVDAESLEAADLDEAFRDVSGILVPGGFGVRGIEGKVRAAQYARERKIPYLGICLGLQIAVIEFARNVAGLKGANSTEFDPHTPHPVIDLMPEQLEVEGLGGTMRLGDWPMRIKPGTLLHRLYGKEEVLERHRHRYEVNPLYVDGLERAGLVVSATTPGMRGRGAGLVEAIELKDHPFFLGLQSHPEFKSRPMRPSPPFVGFVEAALAYQERA	not failed
MKALNKIRYAFLVCTLMVLVTLAGCNSADRSAEPPQSSHQGSEQEGAKKTPLNVEVFNLGERSMFAVSSVLVTGTADAILIDTQFSAADARQLVDKIKASGKRLKAIYISHGDPDYYFGLDSVHAAFPEAKVFATPQTIAHIQATKDAKLKLWAPQLGQDAPKQILIPEPMQGDQLVLEGQELRIIGMDGPTPDRTFVWIPSSRTVAGGISVMGAQHVWMADTQTPQSHMEWLAVLDRIKSMDPKVVVPGHFLPGASLDVRSVTFTADYIRAFDEETVKAKDSAALIAAMKQRYPGLGGEGSLELSAKVAKGEMEWK	failed
MVIPALPKIEDQFSTSATTVAWITSAYLIVGAVASPVFGKLGDRYGKKKIYLLAIAFYSLAVLIAGFSTNIYMLIFARAIQGLGFAVFPIAIAIITDLFPRERVAWAQSILSATLALGPALGLLIGAYIVQDLGWQYAFHTAFILSIILMFISIRFIQEIPSKTKERIDYLGAVFLMLAVISLLVYLTEGPSIGWFSATQFSLILTSIISFGVFIFVERRVAEPLMKLDLFRIRNIMVANISGLIAGTAMFLMFIGLTYYAQLPKPYGLGLSIIDSGLLMAPVALTMMVVGPIVGRLINSTGPKPLLIFGSIVGIIGFLLLNAFNSTNIQVLLDTVVASVGIISLMIPLVNMVAVSLPEDQRGVGIGMNTLIRSIGSSVGPVISTVFMDTYTAWIGYLFNNQYLPIASVPSSEAFHYIYLVGICLMFINLLVALLTKNYVLKQKVKTTESVV	failed
MKLDEIARLAGVSRTTASYVINGKAKQYRVSDKTVEKVMAVVREHNYHPNAVAAGLRAGRTRSIGLVIPDLENTSYTRIANYLERQARQRGYQLLIACSEDQPDNEMRCIEHLLQRQVDAIIVSTSLPPEHPFYQRWANDPFPIVALDRALDREHFTSVVGADQDDAEMLAEELRKFPAETVLYLGALPELSVSFLREQGFRTAWKDDPREVHFLYANSYEREAAAQLFEKWLETHPMPQALFTTSFALLQGVMDVTLRRDGKLPSDLAIATFG	failed
MIDLAVLPIYLTAVIALLLLPGPDMLLIASSSMSYGRKVGLFASLGNATSGLILTLLAAMGVSTLIAMSPVALKVLHLLGGAYLLKMGWDCLRAEASSAPELDQKNKMASTYYQRALMSNLLNPKALVFFVMFLPQFVSSNITASSGEQMLALGLLLNVLGLLFNLLLVALAGTLGKGLLENEKFRTYQHKLMGLVFVILALWMLSSFVL	failed
MEQLSDSDHRDSADATTSSCQSTTAEDGQCGGGGEAMARGLSAMLESVIKDFDSKALDTLNSQDELSGSLDRLVQDYAQINPIDPIKFLNHYIAIGLTKLLKN	failed
DNKELQKLTEDISETYFKKPFRHQALFNDRLKTTGGRYLLTSHNIELNRKYLIEHGREELIGIIKHELCHYHLHLEGKGYKHRDRDFRMLLQQVNAPRFCTPLKKKAENKKTYMYICTTCGQQYIKKRAMNPDRYRCGKCRGKIKRI	not failed
MASSVDEEALHQLYLWVDNIPLSRPKRNLSRDFSDGVLVAEVIKFYFPKMVEMHNYVPANSLQQKLSNWGHLNRKVLKRLNFSVPDDVMRKIAQCAPGVVELVLIPLRQRLEERQRRRKQ	not failed
MAMKIPKSGYNRFMKEGAQHFKGTDEAVQRNIEACTELASQIRSAYGPNGMNKMVINHIEKLFVTNDAATILKELEIQHPAARIIIMATEMQEKQIGDNTNTVVILAAALLEHAANLIHMGMTPQEVAAGYEQAAEKALEILPTLVVKEATDMKNIEEVRQYIRSAITSKQYDNEDIIADLVAKACVTTCPANSFNFNVDNIRICKIIGSGVHTSTVMNGMVFKRGAEGEIREARDARIAVYTCPFDLTQTETKGTVLIENADELRNFSKGEEAEVEEQVKAIADNARSSILAKFWLMNFSKGEEAEVEEQQVKAIADNGVKVVVAAGKFGDMYLHFLNKYKIMAVRLTSKFDLRRLCRTVGAQPQARICAPAVNLLGHCDSVAVQEIGDENVVVFDKKSETGKVATIIIRGSSQSRIDDVERAVDDAVNTYKALTKDGKLLAGAGAVEIELAKEIESFGAKAPGLEQYAIKKFAHALETLPKAIAENAGMPTTETLTKLYAEHVAGKKNAGIDIWKRETMDAVVNNIFDLYAGKRLAIKLATDAASTILKVDQIIMSKQATGGPKPRGPKAQDEDDDGMA	failed
MNVLRRFHAWRNQAPLWWWVGLRMSALAVVTMMVIAFGMWCYFNLRYSLILSNVPAEPRAEISQLIEQPRANQARLWELFQRYYDIENFLPGLANPDWWMLGAMMTISVPVILFCGLLASRPLSRQFSQVAFAAHRVSDGDFGARAQVVRGAPDELTALADDFNTMSGRLQQYERELRDSSAMLAHELRTPLNAAMGRVQGMLDDVFPREPEQLRLVHRQLEQINRLIGDLHLVSLARAGQLVLEPESVELRELVAERIEWAGPALREAQMTIHYPTHPALRLHADRHRLGQVLSILIDNALRYAAAGKLLEIEVRRDGTGVQLTVGDRGPGVAPAQLPHLLDRFWRADSSRARHSGGSGLGLAIASAICQAHDGQLVVSNRPGGGLLASVQLPLGR	failed
MRLRLLSLPFILSLCAPLLPLNTLAAERIVTIGGDVTEIAYALGAGDEIVARDSTSQQPQAAQKLPDVGYMRTLNAEGILAMKPTMLLVSELAQPSLVLTQIASSGVNVVTVPGQTTPESVAMKINAVATALHQTEKGQKLIEDYQQRLAAVNKTPLPVKVLFVMSHGGLTPMAAGQNTAADAMIRAAGGSNAMQGFSRYRPLSQEGVIASAPDLLLITTDGVKALGSSENIWKLPGMALTPAGKHKRLLVVDDMALLGFGLETPQVLAQLREKMEQMQ	failed
MKTHFVKLLTQPESAWVQIRSEEQRKPWQYLPHLLLWALVPALCLLIGVTQVGWSLVDAERVRLSLASAMQLALLLYLTALLGTVLMGGFIRWMSRPFEARPTLNQCVGFAAYTATPYFIAGISGLYPSRWLAVAALLVASAYASYLLLVGLPKFMYLNQERGRLYAASVWGVGLLVLVTILVSMILFWFNVLAPQYLRPLAAL	failed
MTKNKKGKNKEVINNYEEEEDYNIIDHDENAEVDVIPEPDFNSNMVYLNIYDLDSVSKVVNTVARSVGAGAFHAGVEVYGYEYSFGYIMDGETGVTKTNARVMIQKNNEILKNIKTYRIHVNIYIYIFLLVFSKTPLTKEEVDLLVEVMKLQWIGDTYDILSRNCLNYADYFCNLLDVGGIPEWVMSLQKKVTWVKSNINIAASKLKELNKAAGIPNVINYLKKKYEDSNSSDDYKGCKVVVK	failed
MKIEQLYTGCLAEAAYYIESEGEAIIIDPLRDIQTYVQKIERNNVTLKYIFETHFHADFVSGHLDLAEATGATIVYGPKAETTFNSHIAYDGEKISIGKITLQVLHTPGHTQESSCYLLYDEDGNKHALFTGDTLFIGDVGRPDLAIKSDLTKEDLAGMLYDSLEEKIKPLPDAITIYPAHGAGSACGKNLSKETFDTLGSQKQKNYALKAADKETFIKQVLDDLQPAPSYFNMNALLNKEGPGSVSELIKQGSIAFDVQSFENLQRQTYAVLLDTRDAKEFKKGFIPGSINIGLNGQLAPWAGTLLTNSDKPILIITDPGKEEETIIRLARVGVDQVIGYLKDGYNSWQKANKPEENIETISAAELVEKLDENINILDVRKADEYEKGHLNAAQHLPLDYINDWITTLDKNKTYYVHCAGGYRSVITESILKSRNISNVIDVSGGYGAIKAAMEPTKKRWLNAFFSFMKVK	failed
MREESIGRIAKDFLGHEGFQLTEWGGGNLNYLYRVDSTKESYILKYAPPYIRCLGEGYPLSSERLRYEILGLKAANETIPEFAPKLFYVAKEGVVMEYLEGFKLLRQAFIQGEKIPHLAEHLAEMLARFLVKNSFWALNEGERKKLLEQSENSLMRRLSEDYIFTFPFMEHPTNQKNPTSAPSVREIHQDKEWLGAILWLKSRFSTAKEGLLHGDLHTGSLMIKGEQIKMIDFEFSFVGPLSFDLGAILANWLIAYRTHKERGEVGGYSQWLREEMEEFIERFKEQFEFWAGEHGAPQIGIKGYLEALLIEAWGMAGVKIARRILGAAGVEDITSLESPLKEEVERRLLVLSREMTLRAALGIIPIQKGGREAYSWLF	failed
AQNFSDYFTNKTLRIDYLFTGNADKQSICLDELSELPVWAGRRHHLSELPLEGNGQIVMRDVASGKVIYTTSFSSLFQEWLETDEAKEVTKGFENTYLLPYPIKPAEVEITLRNNKREVSANLKHVVKPDDILIHKKGLTHITPHKYLLKSGNEEQCIDVAILAEGYTTSEMETFYKDAAIACEALFSHEPFQSMKNRFNIVAVASPSADSGVSAPKQGAWKHTAFGSHFDTFYSDRYLTTSRVKAINDALAGIPYEHIIILANTEQYGGGGIYNAFTLTTAHHPNFRPVVVHEFGHSFGGLADEYFYDEDVMNGLYPLNIEPWEQNITTRINFASKWEDMLTKTTPVPTPVADKAKYPIGVYEGGGYSAKGIYRPAFDCRMRTNEYPTFCPVCQRAIQRIIEFYTGK	not failed
MNIREIAAKCSKCGYCTTCPTYRIEGWETVSPRGKIQLALKYVDGEIDVDQKIVKDIFKCSVCGLCQEVCPVELPLIDFWEELRRTLVQKGLAPLSVHRKLREITFRNYNPYSGDQERRGDWADFEIKPAKTLYFAGCTASFRLQNLAKSTASVLEKLGIDFTIAGKNEYCCGSPFLRTGQKDIVERLFEKNYAYWQKMGIERIITSCPGCYRTISLDYPKIAEEKGYEFDIEVVHTVSILDKMGEFEKIDLKATYHDPCHLGRHMGMYEEPRNVIKRLGINFVEMERNREQALCCGAGGGLRSQFPEISFEIGRQRVLEAMETGAEYLITCCPFCEYHLSKSAEKLGNRIKVVDLVEIAEKLISP	failed
MFNKVAFMNIPMMDLIMIVIAIIITIGSFLFIAYLIFKYSKIKKQVKIIREVKINLPKMLKSNMIKNSFLIISLLCFYFGMLYIAGELVISHILFIAICWIVVFLYIIIKGETRGYICEEGLLVSGVLYSWKEFKDVKIEDNYIILTTPIHKIVIKKEKGVENILKNYLKRN	failed
